One molecule from paper PMC9091920 (Journal of Pharmaceutical Analysis, 2021) can be followed below.

Broadly, the Kd is the free concentration of one partner at which half of the binding sites on the other are occupied at equilibrium, for simple one-to-one binding.

The target in test [1] is recombinant human interferon α2b (human) (UniProt P01563). Nature of the test: lateral-flow immunochromatographic strip.
The target is the same in test [2]. Briefly: BLI. In general terms: In BLI a coated tip is dipped into the sample, and binding shifts an interference pattern.
Test [3] shares this target. Nature of the test: far-Western, overlay or dot blot.

B1: nanobody I22 (His-labeled, purified) (VHH)
VHH: QVQLVESGGGLVQPGGSLRLSCVASGFTFDSATMSWHRQAPGREREFVAMTSGGGMINYANSVKGRFTISRDNAKNTVYLQMDSLKPEDTAVYYCHRLGTFHWGQGTQVTVSS
Regarding B1, the limit of detection in test [1] amounted to 1 µg/mL; in test [3], 31.2 ng. The Kd in test [2] was found to be 2.06 nM.
